# Data from article PMC3177862, “Characterization of the Biosynthesis, Processing and Kinetic Mechanism of Action of the Enzyme Deficient in Mucopolysaccharidosis IIIC” (PLoS ONE, 2011).
# B1: N-acetyltransferase-His8Flag (heparin acetyl-CoA:alpha-glucosaminide N-acetyltransferase) (Homo sapiens) (protein)
# chain: RDAQAAPPRDLDKKRHAELKMDQALLLIHNELLWTNLTVYWKSECCYHCLFQVLVNVPQSPKAGKPSAAAASVSTQHGSILQLNDTLEEKEVCRLEYRFGEFGNYSLLVKNIHNGVSEIACDLAVNEDPVDSNLPVSIAFLIGLAVIIVISFLRLLLSLDDFNNWISKAISSRETDRLINSELGSPSRTDPLDGDVQPATWRLSALPPRLRSVDTFRGIALILMVFVNYGGGKYWYFKHASWNGLTVADLVFPWFVFIMGSSIFLSMTSILQRGCSKFRLLGKIAWRSFLLICIGIIIVNPNYCLGPLSWDKVRIPGVLQRLGVTYFVVAVLELLFAKPVPEHCASERSCLSLRDITSSWPQWLLILVLEGLWLGLTFLLPVPGCPTGYLGPGGIGDFGKYPNCTGGAAGYIDRLLLGDDHLYQHPSSAVLYHTEVAYDPEGILGTINSIVMAFLGVQAGKILLYYKARTKDILIRFTAWCCILGLISVALTKVSENEGFIPVNKNLWSLSYVTTLSSFAFFILLVLYPVVDVKGLWTGTPFFYPGMNSILVYVGHEVFENYFPFQWKLKDNQSHKEHLTQNIVATALWVLIAYILYRKKIFWKI
# notes: full length 635 aa with C-terminal His8-Flag tag kept; stably expressed in HeLa cells, DDM extract, anti-Flag purified; signal peptide cleaved; mix of 62 kDa precursor and processed alpha (Lys43-Asn144, N-terminus KKRHAE) and beta (Gly145-Ile635, N-terminus GVSEIA) chains; native about 80 kDa, monomer
# Key:
# [1] = substrate: CC(=O)SCCNC(=O)CCNC(=O)[C@H](O)C(C)(C)COP(=O)(O)OP(=O)(O)OC[C@H]1O[C@@H](n2cnc3c(N)ncnc32)[C@H](O)[C@@H]1OP(=O)(O)O; assay: coupled fluorescence assay with beta-hexosaminidase (4-methylumbelliferone release), Michaelis-Menten fit; format: biochemical, Homo sapiens; conditions: MU-GlcNH2 fixed at 1 mM, CP buffer pH 5.5, 37 °C, liposomes with 20% PI, random sequential ternary-complex mechanism
# Excerpt: (§1) coupled fluorescence assay with beta-hexosaminidase (4-methylumbelliferone release), Michaelis-Menten fit on N-acetyltransferase-His8Flag (heparin acetyl-CoA:alpha-glucosaminide N-acetyltransferase)
# [2] = substrate: Cc1cc(=O)oc2cc(O[C@@H]3O[C@H](CO)[C@@H](O)[C@H](O)[C@H]3N)ccc12; assay: as above; format: biochemical, Homo sapiens; conditions: acetyl-CoA fixed at 2 mM, CP buffer pH 5.5, 37 °C, liposomes with 20% PI, random sequential ternary-complex mechanism
# Excerpt: as §1
protein,measurement,setting,value
B1,Km,[1],500 ± 20 µM
same,Vmax,[1],6.33 µmol/min/mg
same,kcat,[1],7.33 ± 0.1 s⁻¹
same,Km,[2],450 ± 90 µM
same,Vmax,[2],9 µmol/min/mg
same,kcat,[2],10.4 ± 1.14 s⁻¹
